Experimental data taken from paper PMC8216460 (Nucleic Acids Research, 2021).

B2: VcDnaB, replicative helicase DnaB from Vibrio cholerae (enzyme)
chain: MADPRTDNRNRKIPDAQVDAIKVPPHSLEAEQSVIGGLLLDNERWDTVSEHVMTQDFYSRPHRLIFDGVKSILEAGKPLDLITLSEYLEQREQLEDVGGFAYLADLAKNTPSAANINAYAEIVAERALVRNLIGVANEIADAGYDPQGRNAEDLLDLAESKVFAIAEARTSENEGPKNVDSILERTLERIELLYKTPQDGVTGVNTGFTDLNKKTAGLQGSDLIIVAARPSMGKTTFAMNLCENAAMEQDKPVLIFSLEMPAEQIMMRMLASLSRVDQTKIRTGQLDDEDWARISSTMGILMEKKNMYIDDSSGLTPTEVRSRARRIAREHGGLSLIMVDYLQLMRVPALTDNRTLEIAEISRSLKALAKELNVPVVALSQLNRSLEQRADKRPVNSDLRESGSIEQDADLIMFIYRDEVYHPDSPLKGTAEIIIGKQRNGPIGSVRLTFQGHYSRFDNYAGPAFDDE

Key:
[1] = molecular target: VcDnaB, replicative helicase DnaB from Vibrio cholerae (Vibrio cholerae); test: SEC-SAXS
[2] = molecular target: VcDnaB, replicative helicase DnaB from Vibrio cholerae (Vibrio cholerae); test: SPR
[3] = molecular target: B2; test: SPR
VcDnaB^S296G = VcDnaB^S296G (Vibrio cholerae, UniProt A0A085R2T8 1-468, S296G); test: SPR
EcDnaB^G299S = EcDnaB^G299S (E. coli, UniProt P0ACB0 1-471, G299S); test: SPR
crystal structure = molecular target: the molecule itself; test: crystal structure
SEC-MALS = molecular target: the molecule itself; test: SEC-MALS

Question: Which stoichiometry N (VcDciA per VcDnaB hexamer) [1] does the source give for “VcDciA, DciA from Vibrio cholerae (natural protein)” here?
Answer: The stoichiometry N (VcDciA per VcDnaB hexamer) was 3.

Question: What about the stoichiometry N (VcDciA per 6 VcDnaB) [2] of the same molecule?
Answer: The stoichiometry N (VcDciA per 6 VcDnaB) was 3.

B1: EcDnaC, helicase loader DnaC from E. coli (natural protein)
chain: MKNVGDLMQRLQKMMPAHIKPAFKTGEELLAWQKEQGAIRSAALERENRAMKMQRTFNRSGIRPLHQNCSFENYRVECEGQMNALSKARQYVEEFDGNIASFIFSGKPGTGKNHLAAAICNELLLRGKSVLIITVADIMSAMKDTFRNSGTSEEQLLNDLSNVDLLVIDEIGVQTESKYEKVIINQIVDRRSSSKRPTGMLTNSNMEEMTKLLGERVMDRMRLGNSLWVIFNWDSYRSRVTGKEY
Question: Does B1 bind [3]?
Answer: Result: binds

Question: Does B1 bind (VcDnaB^S296G)?
Answer: Result: binds

Question: And the “fold change of the dissociation rate against EcDnaB” value (EcDnaB^G299S)?
Answer: The value was 2 fold.

Question: Which “stoichiometry N” value (crystal structure) does the source give for B2 here?
Answer: The value was 6 subunits.

B3: VcDnaB, replicative helicase DnaB from Vibrio cholerae (enzyme)
chain: MADPRTDNRNRKIPDAQVDAIKVPPHSLEAEQSVIGGLLLDNERWDTVSEHVMTQDFYSRPHRLIFDGVKSILEAGKPLDLITLSEYLEQREQLEDVGGFAYLADLAKNTPSAANINAYAEIVAERALVRNLIGVANEIADAGYDPQGRNAEDLLDLAESKVFAIAEARTSENEGPKNVDSILERTLERIELLYKTPQDGVTGVNTGFTDLNKKTAGLQGSDLIIVAARPSMGKTTFAMNLCENAAMEQDKPVLIFSLEMPAEQIMMRMLASLSRVDQTKIRTGQLDDEDWARISSTMGILMEKKNMYIDDSSGLTPTEVRSRARRIAREHGGLSLIMVDYLQLMRVPALTDNRTLEIAEISRSLKALAKELNVPVVALSQLNRSLEQRADKRPVNSDLRESGSIEQDADLIMFIYRDEVYHPDSPLKGTAEIIIGKQRNGPIGSVRLTFQGHYSRFDNYAGPAFDDE
Question: How did the “stoichiometry N” value (SEC-MALS) turn out when B3 was run?
Answer: The value was 6.
